EP4667491A1 (Genome and Company, dated 2025)
Like-named read-outs stand apart in the source and are kept apart here.

T1: human CNTN4 expressed on the cell surface (human, UniProt Q8IWV2 19-1000)
T1 construct: whole, on cells; also called human CNTN4 cell
T1 sequence (looked up): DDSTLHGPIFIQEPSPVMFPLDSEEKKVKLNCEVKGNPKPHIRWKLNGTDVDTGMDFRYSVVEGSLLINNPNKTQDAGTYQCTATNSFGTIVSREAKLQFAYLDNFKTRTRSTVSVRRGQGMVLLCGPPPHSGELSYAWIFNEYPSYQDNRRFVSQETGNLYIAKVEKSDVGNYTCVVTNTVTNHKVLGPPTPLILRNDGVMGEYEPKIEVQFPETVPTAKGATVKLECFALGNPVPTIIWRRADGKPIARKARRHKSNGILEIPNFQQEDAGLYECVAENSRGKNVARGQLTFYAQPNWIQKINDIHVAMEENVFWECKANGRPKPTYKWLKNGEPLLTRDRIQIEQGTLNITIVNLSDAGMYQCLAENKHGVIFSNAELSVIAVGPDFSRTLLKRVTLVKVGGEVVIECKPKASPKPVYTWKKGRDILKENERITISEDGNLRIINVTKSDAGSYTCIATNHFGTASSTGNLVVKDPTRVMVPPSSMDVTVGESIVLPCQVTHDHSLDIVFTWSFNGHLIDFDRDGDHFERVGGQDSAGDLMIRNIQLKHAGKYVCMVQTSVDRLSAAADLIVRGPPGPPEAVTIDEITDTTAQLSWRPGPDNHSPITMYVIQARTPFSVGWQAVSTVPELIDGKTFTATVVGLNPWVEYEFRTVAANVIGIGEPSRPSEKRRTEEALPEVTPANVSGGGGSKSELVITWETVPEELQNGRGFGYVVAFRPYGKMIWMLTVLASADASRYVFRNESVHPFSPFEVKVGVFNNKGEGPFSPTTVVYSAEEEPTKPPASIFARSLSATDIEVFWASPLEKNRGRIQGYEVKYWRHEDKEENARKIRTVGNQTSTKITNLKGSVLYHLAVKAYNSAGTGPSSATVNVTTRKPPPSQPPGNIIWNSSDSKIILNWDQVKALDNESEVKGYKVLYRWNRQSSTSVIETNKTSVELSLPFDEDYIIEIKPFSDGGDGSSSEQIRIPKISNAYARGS

T2: Human CNTN4 (His-tagged) (human, UniProt Q8IWV2 19-1000, limits assumed)
T2 construct: also called human CNTN4 protein; not shown: His tag
T2 sequence (looked up): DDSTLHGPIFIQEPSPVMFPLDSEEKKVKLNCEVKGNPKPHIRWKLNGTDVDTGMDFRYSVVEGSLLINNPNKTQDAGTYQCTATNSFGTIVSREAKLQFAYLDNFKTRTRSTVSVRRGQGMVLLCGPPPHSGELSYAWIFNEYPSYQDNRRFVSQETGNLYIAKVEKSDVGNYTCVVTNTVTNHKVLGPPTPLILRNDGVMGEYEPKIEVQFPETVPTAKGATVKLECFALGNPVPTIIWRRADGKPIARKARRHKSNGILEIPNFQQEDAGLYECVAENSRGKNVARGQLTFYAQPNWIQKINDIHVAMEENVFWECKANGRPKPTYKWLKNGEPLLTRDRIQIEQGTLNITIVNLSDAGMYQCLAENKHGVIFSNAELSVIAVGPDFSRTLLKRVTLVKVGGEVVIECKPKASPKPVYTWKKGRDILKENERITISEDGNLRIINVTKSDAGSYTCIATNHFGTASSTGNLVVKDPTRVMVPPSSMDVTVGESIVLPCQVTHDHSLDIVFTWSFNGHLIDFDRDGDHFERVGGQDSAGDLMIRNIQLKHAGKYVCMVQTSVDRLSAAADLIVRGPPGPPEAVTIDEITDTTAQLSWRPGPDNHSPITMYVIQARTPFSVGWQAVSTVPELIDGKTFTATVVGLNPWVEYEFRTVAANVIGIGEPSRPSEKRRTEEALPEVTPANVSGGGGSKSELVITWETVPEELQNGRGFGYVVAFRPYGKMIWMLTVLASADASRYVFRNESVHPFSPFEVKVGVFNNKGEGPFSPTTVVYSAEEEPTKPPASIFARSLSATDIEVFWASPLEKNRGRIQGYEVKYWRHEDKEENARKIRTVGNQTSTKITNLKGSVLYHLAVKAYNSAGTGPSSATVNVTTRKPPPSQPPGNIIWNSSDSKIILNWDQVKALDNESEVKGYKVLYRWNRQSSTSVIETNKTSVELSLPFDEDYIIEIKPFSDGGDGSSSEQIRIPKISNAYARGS

B1: A114-IgG antibody (antibody, V domains shown)
VH: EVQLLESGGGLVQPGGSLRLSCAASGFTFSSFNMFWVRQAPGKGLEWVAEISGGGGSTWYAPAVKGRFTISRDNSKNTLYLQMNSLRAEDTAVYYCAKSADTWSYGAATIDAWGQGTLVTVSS
VL: ELTQDPAVSVALGQTVRITCSGSSGSYGWYQQKPGQAPVLVIYDNTNRPSGIPDRFSGSSSGNTASLTITGAQAEDEADYYCGGYWGSTDVFGGGTKLTVL
notes: VH fused to CH1, hinge, CH2 and CH3 of human IgG4 (S228P); also called A114-IgG Ab; Al14-IgG Ab
B2: A108-IgG antibody (antibody, V domains shown)
VH: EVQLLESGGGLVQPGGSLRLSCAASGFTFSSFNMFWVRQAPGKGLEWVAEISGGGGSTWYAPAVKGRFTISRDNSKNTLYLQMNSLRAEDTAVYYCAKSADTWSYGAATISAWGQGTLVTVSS
VL: ELTQDPAVSVALGQTVRITCSGSSGSYGWYQQKPGQAPVLVIYDNTNRPSGIPDRFSGSSSGNTASLTITGAQAEDEADYYCGGYDGSTDVFGGGTKLTVL
notes: VH fused to CH1, hinge, CH2 and CH3 of human IgG4 (S228P); also called A108-IgG Ab
B3: A103-IgG antibody (antibody, V domains shown)
VH: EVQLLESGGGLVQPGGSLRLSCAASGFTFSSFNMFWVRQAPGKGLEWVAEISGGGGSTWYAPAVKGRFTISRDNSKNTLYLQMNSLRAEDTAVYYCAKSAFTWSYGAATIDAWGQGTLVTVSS
VL: ELTQDPAVSVALGQTVRITCSGSSGSYGWYQQKPGQAPVLVIYDNTNRPSGIPDRFSGSSSGNTASLTITGAQAEDEADYYCGGYDGSTDVFGGGTKLTVL
notes: VH fused to CH1, hinge, CH2 and CH3 of human IgG4 (S228P); also called A103-IgG Ab
B4: A202-IgG antibody (antibody, V domains shown)
VH: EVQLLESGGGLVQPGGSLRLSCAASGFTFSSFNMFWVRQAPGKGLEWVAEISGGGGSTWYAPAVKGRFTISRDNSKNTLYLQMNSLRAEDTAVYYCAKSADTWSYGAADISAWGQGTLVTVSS
VL: ELTQDPAVSVALGQTVRITCSGRSGSYGWYQQKPGQAPVLVIYDNTNRPSGIPDRFSGSSSGNTASLTITGAQAEDEADYYCGGYWGSTDVFGGGTKLTVL
notes: VH fused to CH1, hinge, CH2 and CH3 of human IgG4 (S228P); also called A202-IgG Ab
B5: A102-IgG antibody (antibody, V domains shown)
VH: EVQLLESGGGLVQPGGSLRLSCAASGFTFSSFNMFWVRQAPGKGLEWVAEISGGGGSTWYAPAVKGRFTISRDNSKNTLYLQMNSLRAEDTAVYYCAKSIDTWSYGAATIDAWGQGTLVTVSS
VL: ELTQDPAVSVALGQTVRITCSGSSGSYGWYQQKPGQAPVLVIYDNTNRPSGIPDRFSGSSSGNTASLTITGAQAEDEADYYCGGYDGSTDVFGGGTKLTVL
notes: VH fused to CH1, hinge, CH2 and CH3 of human IgG4 (S228P); also called A102-IgG Ab
B6: A109-IgG antibody (antibody, V domains shown)
VH: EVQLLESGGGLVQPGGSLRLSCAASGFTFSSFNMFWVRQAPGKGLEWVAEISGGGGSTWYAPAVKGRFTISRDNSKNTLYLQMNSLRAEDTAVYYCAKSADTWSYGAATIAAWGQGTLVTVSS
VL: ELTQDPAVSVALGQTVRITCSGSSGSYGWYQQKPGQAPVLVIYDNTNRPSGIPDRFSGSSSGNTASLTITGAQAEDEADYYCGGYDGSTDVFGGGTKLTVL
notes: VH fused to CH1, hinge, CH2 and CH3 of human IgG4 (S228P); also called A109-IgG Ab
B7: A204-IgG antibody (antibody, V domains shown)
VH: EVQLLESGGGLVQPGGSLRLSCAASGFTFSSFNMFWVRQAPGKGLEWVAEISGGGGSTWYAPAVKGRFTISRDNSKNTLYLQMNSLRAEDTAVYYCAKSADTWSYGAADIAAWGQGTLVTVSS
VL: ELTQDPAVSVALGQTVRITCSGRSGSYGWYQQKPGQAPVLVIYDNTNRPSGIPDRFSGSSSGNTASLTITGAQAEDEADYYCGGYWGSTDVFGGGTKLTVL
notes: VH fused to CH1, hinge, CH2 and CH3 of human IgG4 (S228P); also called A204-IgG Ab
B8: A209-IgG antibody (antibody, V domains shown)
VH: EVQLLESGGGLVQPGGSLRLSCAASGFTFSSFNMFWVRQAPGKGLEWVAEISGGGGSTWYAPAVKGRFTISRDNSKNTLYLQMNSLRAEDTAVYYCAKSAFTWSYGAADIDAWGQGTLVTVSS
VL: ELTQDPAVSVALGQTVRITCSGRSGSYGWYQQKPGQAPVLVIYDNTNRPSGIPDRFSGSSSGNTASLTITGAQAEDEADYYCGGYWGSTDVFGGGTKLTVL
notes: VH fused to CH1, hinge, CH2 and CH3 of human IgG4 (S228P); also called A209-IgG Ab; A209-TgG Ab
B9: A217-IgG antibody (antibody, V domains shown)
VH: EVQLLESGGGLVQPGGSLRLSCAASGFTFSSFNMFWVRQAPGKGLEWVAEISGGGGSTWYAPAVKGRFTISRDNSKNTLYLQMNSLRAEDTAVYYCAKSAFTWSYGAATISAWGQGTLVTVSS
VL: ELTQDPAVSVALGQTVRITCSGSSGSYGWYQQKPGQAPVLVIYDNTNRPSGIPDRFSGSSSGNTASLTITGAQAEDEADYYCGGYWGSTDVFGGGTKLTVL
notes: VH fused to CH1, hinge, CH2 and CH3 of human IgG4 (S228P); also called A217-IgG Ab
B10: A106-IgG antibody (antibody, V domains shown)
VH: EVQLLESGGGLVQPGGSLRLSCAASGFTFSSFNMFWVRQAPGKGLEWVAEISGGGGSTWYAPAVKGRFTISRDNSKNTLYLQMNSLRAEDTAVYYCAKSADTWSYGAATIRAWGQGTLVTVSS
VL: ELTQDPAVSVALGQTVRITCSGSSGSYGWYQQKPGQAPVLVIYDNTNRPSGIPDRFSGSSSGNTASLTITGAQAEDEADYYCGGYDGSTDVFGGGTKLTVL
notes: VH fused to CH1, hinge, CH2 and CH3 of human IgG4 (S228P); also called A106-IgG Ab
B11: A211-IgG antibody (antibody, V domains shown)
VH: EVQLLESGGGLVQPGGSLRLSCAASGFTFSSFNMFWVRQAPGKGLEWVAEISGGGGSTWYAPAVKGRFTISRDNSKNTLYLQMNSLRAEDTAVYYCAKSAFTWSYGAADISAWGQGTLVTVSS
VL: ELTQDPAVSVALGQTVRITCSGRSGSYGWYQQKPGQAPVLVIYDNTNRPSGIPDRFSGSSSGNTASLTITGAQAEDEADYYCGGYWGSTDVFGGGTKLTVL
notes: VH fused to CH1, hinge, CH2 and CH3 of human IgG4 (S228P); also called A211-IgG Ab
B12: A105-IgG antibody (antibody, V domains shown)
VH: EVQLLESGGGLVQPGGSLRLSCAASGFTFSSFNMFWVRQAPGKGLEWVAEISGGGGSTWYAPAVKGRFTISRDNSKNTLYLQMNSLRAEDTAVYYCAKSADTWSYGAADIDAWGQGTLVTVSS
VL: ELTQDPAVSVALGQTVRITCSGSSGSYGWYQQKPGQAPVLVIYDNTNRPSGIPDRFSGSSSGNTASLTITGAQAEDEADYYCGGYDGSTDVFGGGTKLTVL
notes: VH fused to CH1, hinge, CH2 and CH3 of human IgG4 (S228P); also called A105-IgG Ab
B13: A206-IgG antibody (antibody, V domains shown)
VH: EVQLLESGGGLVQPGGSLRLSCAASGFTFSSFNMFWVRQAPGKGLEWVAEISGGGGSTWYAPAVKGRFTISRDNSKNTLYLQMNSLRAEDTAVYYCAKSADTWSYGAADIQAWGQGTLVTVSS
VL: ELTQDPAVSVALGQTVRITCSGRSGSYGWYQQKPGQAPVLVIYDNTNRPSGIPDRFSGSSSGNTASLTITGAQAEDEADYYCGGYWGSTDVFGGGTKLTVL
notes: VH fused to CH1, hinge, CH2 and CH3 of human IgG4 (S228P); also called A206-IgG Ab
B14: A112-IgG antibody (antibody, V domains shown)
VH: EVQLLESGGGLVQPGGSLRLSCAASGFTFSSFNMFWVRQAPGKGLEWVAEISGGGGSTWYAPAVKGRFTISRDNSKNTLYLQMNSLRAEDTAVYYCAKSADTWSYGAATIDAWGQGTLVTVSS
VL: ELTQDPAVSVALGQTVRITCSGRSGSYGWYQQKPGQAPVLVIYDNTNRPSGIPDRFSGSSSGNTASLTITGAQAEDEADYYCGGYDGSTDVFGGGTKLTVL
notes: VH fused to CH1, hinge, CH2 and CH3 of human IgG4 (S228P); also called A112-IgG Ab
B15: A104-IgG antibody (antibody, V domains shown)
VH: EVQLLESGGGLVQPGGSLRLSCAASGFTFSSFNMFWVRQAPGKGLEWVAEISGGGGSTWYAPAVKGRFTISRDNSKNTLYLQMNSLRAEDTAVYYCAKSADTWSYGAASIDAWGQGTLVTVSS
VL: ELTQDPAVSVALGQTVRITCSGSSGSYGWYQQKPGQAPVLVIYDNTNRPSGIPDRFSGSSSGNTASLTITGAQAEDEADYYCGGYDGSTDVFGGGTKLTVL
notes: VH fused to CH1, hinge, CH2 and CH3 of human IgG4 (S228P); also called A104-IgG Ab

Experiments:
[1] = biological target: T1, human CNTN4 expressed on the cell …; experiment: flow cytometry; IgG on human CNTN4-overexpressing HEK293 cells
Human CNTN4 (His-tagged) [2] = biological target: T2, Human CNTN4 (His-tagged); experiment: ELISA; His-tagged human CNTN4 captured by anti-His antibody, anti-human IgG-HRP
[3] = biological target: T1, human CNTN4 expressed on the cell …; experiment: flow cytometry; IgG on human CNTN4-overexpressing HEK293 cells; remark: listed apart in the source
Human CNTN4 (His-tagged) [4] = biological target: T2, Human CNTN4 (His-tagged); experiment: ELISA; His-tagged human CNTN4 captured by anti-His antibody, anti-human IgG-HRP; remark: listed apart in the source
Human CNTN4 (His-tagged) [5] = biological target: T2, Human CNTN4 (His-tagged); experiment: SPR; IgG captured on CM5 chip, His-tagged human CNTN4 as analyte, 1:1 fit

| Binder | EC50 [1] | TOP MFI [1] | EC50 (Human CNTN4 (His-tagged) [2]) | EC50 [3] | EC50 (Human CNTN4 (His-tagged) [4]) | Kd (Human CNTN4 (His-tagged) [5]) |
| --- | --- | --- | --- | --- | --- | --- |
| B1 | 0.262 nM | 470 MFI | 0.129 nM | 0.539 nM | – | – |
| B2 | 0.074 nM | 356 MFI | 0.034 nM | – | – | – |
| B3 | 0.09 nM | 378 MFI | 0.031 nM | – | – | – |
| B4 | – | – | – | – | 0.035 nM | – |
| B5 | 0.066 nM | 328 MFI | 0.057 nM | – | – | – |
| B6 | 0.082 nM | 357 MFI | 0.041 nM | – | – | – |
| B7 | – | – | – | – | 0.015 nM | 0.663 nM |
| B8 | – | – | – | – | 0.026 nM | 0.662 nM |
| B9 | – | – | – | – | 0.033 nM | 1.18 nM |
| B10 | 0.086 nM | 336 MFI | 0.042 nM | – | – | – |
| B11 | – | – | – | 0.316 nM | 0.033 nM | 0.709 nM |
| B12 | 0.234 nM | 454 MFI | 0.153 nM | – | – | – |
| B13 | – | – | – | – | 0.027 nM | 0.702 nM |
| B14 | 0.204 nM | 422 MFI | 0.075 nM | – | – | – |
| B15 | 0.109 nM | 358 MFI | 0.069 nM | – | – | – |
